Results: article PMC4762201 (Nature, 2016)

T1: Prp6 (S. cerevisiae, UniProt P19735 1-899)
T1 sequence: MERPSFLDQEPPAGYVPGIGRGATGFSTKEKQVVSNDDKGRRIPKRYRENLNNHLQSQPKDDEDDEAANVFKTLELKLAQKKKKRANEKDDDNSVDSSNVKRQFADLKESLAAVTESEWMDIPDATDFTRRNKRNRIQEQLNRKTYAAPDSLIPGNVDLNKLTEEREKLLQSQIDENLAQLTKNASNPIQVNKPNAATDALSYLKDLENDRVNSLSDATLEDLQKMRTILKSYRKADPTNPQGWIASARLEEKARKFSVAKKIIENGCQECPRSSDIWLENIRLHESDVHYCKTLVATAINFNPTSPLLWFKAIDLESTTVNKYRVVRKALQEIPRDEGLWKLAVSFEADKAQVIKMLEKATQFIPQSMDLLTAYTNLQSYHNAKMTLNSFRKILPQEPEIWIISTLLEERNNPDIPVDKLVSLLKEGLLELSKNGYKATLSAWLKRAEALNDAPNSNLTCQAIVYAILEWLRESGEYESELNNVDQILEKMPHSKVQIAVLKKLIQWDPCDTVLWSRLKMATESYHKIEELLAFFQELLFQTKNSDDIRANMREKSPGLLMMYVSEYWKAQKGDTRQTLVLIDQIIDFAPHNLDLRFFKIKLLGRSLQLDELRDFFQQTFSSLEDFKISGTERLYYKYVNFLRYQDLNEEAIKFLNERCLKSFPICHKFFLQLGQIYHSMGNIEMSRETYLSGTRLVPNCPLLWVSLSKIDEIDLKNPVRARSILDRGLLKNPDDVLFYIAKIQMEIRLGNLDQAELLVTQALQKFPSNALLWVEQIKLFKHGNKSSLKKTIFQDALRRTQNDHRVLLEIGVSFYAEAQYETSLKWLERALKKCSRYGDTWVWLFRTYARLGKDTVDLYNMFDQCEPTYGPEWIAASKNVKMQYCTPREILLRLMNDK

B1: Dib1 (natural protein, S. cerevisiae, UniProt Q06819 1-143, looked up)
chain: MASVLLPQLRTGWHVDQAIVTETKRLVVIRFGRKNDRQCMIMDELLSSIAERVRNFAVIYLCDIDEVSDFDEMYELTDPMTVMFFYHNKHMMCDFGTGNNNKLNFIVDDKQEMIDILETIFRGARKNKGLVVSPYDYNHKRVS
B2: Prp3 (natural protein)
chain: MPPRNTYEKGNPKRQNSPYYKPSFLRREETTNDEEKFQGHGLKTELHSALKSSNLNLIRRTYQTGENPYLSDPHDRGSSSRFNRRYERGLKFYQKGEISKRIAQERTLQKQQEEEELKRKLKQEEDEKDKRKLIESGDLPNLELHEDKFLLDLSKFKIYYDNNHGYEWWDTAYLDEKGELMEKYDMNGTSPAEEKLAEDIDEVDDDDDDEHPSIRYVAHPLPEKINEAKVSIKAYLTQHERKRLRRNRRKMAREAREIKIKLGLLPKPEPKVKLSNMMSVFENDQNITDPTAWEKVVKDQVDLRKRKHLEENERRHEDAIKRRKEAVNMNVEKPTVYHCKVFQFKNLQNPKIRFKLKMNSKELSLKGLCLRIRDDGPGIIIVVGNEKSCKFYENLVMKRIKWNEDFELHTNTGDIKMDMHNNSISKTWEGYLQDCKFKGWFMKVCNDQDSLLRTLGQFDSEHFYSPVQT
B3: Prp31 (natural protein)
chain: MSSEEDYFDELEYDLADEVNEEKEDIQTKKLTTVNCQTEKFNPFEILPESIELFRTLALISPDRLSLSETAQILPKIVDLKRILQQQEIDFIKLLPFFNEIIPLIKSNIKLMHNFLISLYSRRFPELSSLIPSPLQYSKVISILENENYSKNESDELFFHLENKAKLTREQILVLTMSMKTSFKNKEPLDIKTRTQILEANSILENLWKLQEDIGQYIASKISIIAPNVCFLVGPEIAAQLIAHAGGVLEFSRIPSCNIASIGKNKHLSHELHTLESGVRQEGYLFASDMIQKFPVSVHKQMLRMLCAKVSLAARVDAGQKNGDRNTVLAHKWKAELSKKARKLSEAPSISETKALPIPEDQPKKKRAGRKFRKYKEKFRLSHVRQLQNRMEFGKQEQTVLDSYGEEVGLGMSNTSLQQAVGATSGSRRSAGNQAKLTKVMKHRISEANQQADEFLISLGHNTEQPNLSPEMVQMHKKQHTNPEEETNWFSGHG
B4: Prp4 (natural protein)
chain: MSKYIALENLPVDLQHKGATQNESTADILKQLPHERLQAVLEKIPEEDLEVRRLLSILKKPEVVENEDVQQRRIRLAEILMVDEIDLENINNMENINGEEVDEEDDEDFFTPATSELIFARRFLINYSLERSRKRLQKEMERHQKFNTRQELLSRRTELQRMANLELAGSQLVSTKPISAVSLSTDDMVVATGSWAGDLQVLNSQTLQPLTQKLDSHVGKIGAIDWHPDSNNQMISCAEDGLIKNFQYSNEEGGLRLLGDLVGHERRISDVKYHPSGKFIGSASHDMTWRLWDASTHQELLLQEGHDKGVFSLSFQCDGSLVCSGGMDSLSMLWDIRSGSKVMTLAGHSKPIYTVAWSPNGYQVATGGGDGIINVWDIRKRDEGQLNQILAHRNIVTQVRFSKEDGGKKLVSCGYDNLINVYSSDTWLKMGSLAGHTDKIISLDISNNSHFLVSGGWDRSIKLWN
B5: Snu13 (natural protein, S. cerevisiae, UniProt P39990 1-126, looked up)
chain: MSAPNPKAFPLADAALTQQILDVVQQAANLRQLKKGANEATKTLNRGISEFIIMAADCEPIEILLHLPLLCEDKNVPYVFVPSRVALGRACGVSRPVIAASITTNDASAIKTQIYAVKDKIETLLI
B6: Snu66 (natural protein, S. cerevisiae, UniProt Q12420 1-587, looked up)
chain: MNKTENLSIEETNEIREKLGMKPIPVFQEKNTDHKESLSIEETNELRASLGLKLIPPQQNFNSSPPNVHNTSKIDELREKITKFQKKANAPLRMAHLLEETNVNDDSSWLENMDAIPSSHESKRSSTLPRKGATKEDENIDLHNVQVSYNIEALSPKKDTILTLKESSIFDDTDSTEVLENVKAAEENADREKLRLRQMNKDRRQKKKILNVSSLDIEEEEEGEKHSITTTHLIIGAEQGVMKAPNTISAKPPTGKVKVNFDSANNMSDEDGGDFKPLKIKKRKIKDPRSTKARKSKITDKMEIVKLVDEDESLSWMEEEQPVTIINPRTSSNNELKGPEDLAREIEKARDEEKRRTESILKMREISNSIVVDEKVTFLNTLDTSLSERSATENKVKVHGEGEKNIGDVTNGHTKEGSGNNTLTEAVNNEPNYEGDAENAPNFFSGLASTLGYLRKKSVFTTGDVDLKPGKDVNNSESLRRDVRNKEHTGTGTYTKDKLHGLEQFTSSDSSNANTHSKRQDHYDPDIKLVYRDEKGNRLTTKEAYKKLSQKFHGTKSNKKKRAKMKSRIEARKNTPENGSLFEFDDN

Experiments:
Assay in all cases: cryo-EM structure
Prp31 = biological target: B3
Brr2 = Brr2 (S. cerevisiae, UniProt P32639 1-2163)
Prp6 = biological target: T1, Prp6
Prp3 = biological target: B2
Prp4 = biological target: B4

Brr2, sequence (P32639 whole entry): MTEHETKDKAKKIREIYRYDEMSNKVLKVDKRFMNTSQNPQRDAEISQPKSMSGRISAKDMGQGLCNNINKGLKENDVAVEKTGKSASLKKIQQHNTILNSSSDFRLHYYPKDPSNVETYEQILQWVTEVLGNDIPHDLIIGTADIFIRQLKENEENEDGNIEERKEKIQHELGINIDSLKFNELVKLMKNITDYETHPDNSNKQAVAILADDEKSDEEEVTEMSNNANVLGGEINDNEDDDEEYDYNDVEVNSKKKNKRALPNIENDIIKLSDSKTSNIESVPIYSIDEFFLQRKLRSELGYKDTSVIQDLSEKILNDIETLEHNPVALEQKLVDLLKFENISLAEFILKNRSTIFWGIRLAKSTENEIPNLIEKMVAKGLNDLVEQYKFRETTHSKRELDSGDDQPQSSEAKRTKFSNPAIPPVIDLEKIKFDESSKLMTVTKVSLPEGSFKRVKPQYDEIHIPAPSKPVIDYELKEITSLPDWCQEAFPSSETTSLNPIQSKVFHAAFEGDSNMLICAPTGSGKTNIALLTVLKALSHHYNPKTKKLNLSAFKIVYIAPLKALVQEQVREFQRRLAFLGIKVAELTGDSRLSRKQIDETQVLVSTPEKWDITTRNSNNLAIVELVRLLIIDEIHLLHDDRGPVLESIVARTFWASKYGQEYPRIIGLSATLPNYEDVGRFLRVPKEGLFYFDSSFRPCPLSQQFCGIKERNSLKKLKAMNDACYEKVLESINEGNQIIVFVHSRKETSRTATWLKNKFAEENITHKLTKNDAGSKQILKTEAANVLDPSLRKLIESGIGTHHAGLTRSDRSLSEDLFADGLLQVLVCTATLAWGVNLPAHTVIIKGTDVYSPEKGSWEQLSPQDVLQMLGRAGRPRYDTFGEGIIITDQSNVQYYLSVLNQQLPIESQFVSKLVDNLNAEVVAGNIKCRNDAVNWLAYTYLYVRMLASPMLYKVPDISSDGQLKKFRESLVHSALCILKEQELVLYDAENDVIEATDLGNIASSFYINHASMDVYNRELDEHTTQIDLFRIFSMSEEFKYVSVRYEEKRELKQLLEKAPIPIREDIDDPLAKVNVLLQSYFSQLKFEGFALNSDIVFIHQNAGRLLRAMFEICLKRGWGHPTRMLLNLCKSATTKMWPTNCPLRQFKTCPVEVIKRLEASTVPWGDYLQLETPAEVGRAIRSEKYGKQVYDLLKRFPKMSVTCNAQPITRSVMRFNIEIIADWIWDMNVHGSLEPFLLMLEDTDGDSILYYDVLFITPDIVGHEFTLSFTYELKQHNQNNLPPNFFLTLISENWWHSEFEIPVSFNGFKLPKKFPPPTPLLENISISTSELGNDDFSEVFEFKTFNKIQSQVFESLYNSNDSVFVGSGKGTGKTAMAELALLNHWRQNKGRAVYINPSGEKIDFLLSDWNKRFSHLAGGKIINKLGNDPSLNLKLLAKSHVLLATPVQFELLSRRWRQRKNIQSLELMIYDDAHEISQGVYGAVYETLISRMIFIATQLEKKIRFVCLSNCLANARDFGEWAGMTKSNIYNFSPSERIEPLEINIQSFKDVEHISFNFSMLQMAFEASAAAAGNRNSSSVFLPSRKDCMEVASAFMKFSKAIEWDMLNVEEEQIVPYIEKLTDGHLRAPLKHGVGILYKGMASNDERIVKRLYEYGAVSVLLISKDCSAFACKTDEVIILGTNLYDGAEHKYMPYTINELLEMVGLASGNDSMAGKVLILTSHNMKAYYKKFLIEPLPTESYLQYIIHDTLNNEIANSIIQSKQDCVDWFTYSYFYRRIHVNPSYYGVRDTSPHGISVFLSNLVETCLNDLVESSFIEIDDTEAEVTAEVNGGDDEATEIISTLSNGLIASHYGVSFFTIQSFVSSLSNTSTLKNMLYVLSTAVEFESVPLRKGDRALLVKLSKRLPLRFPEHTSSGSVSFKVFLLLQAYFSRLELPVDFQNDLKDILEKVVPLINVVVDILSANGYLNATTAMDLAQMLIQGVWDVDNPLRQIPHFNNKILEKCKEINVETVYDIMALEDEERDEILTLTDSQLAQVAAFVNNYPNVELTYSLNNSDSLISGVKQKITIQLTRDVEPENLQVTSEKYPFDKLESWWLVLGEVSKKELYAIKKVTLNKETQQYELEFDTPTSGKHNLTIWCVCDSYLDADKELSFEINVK

Binder | binding result (Prp31) | binding result (Brr2) | binding result (Prp3) | further results
B1 | binds |  |  | 
B2 |  | binds |  | 
B3 |  |  |  | binding result (Prp6): binds
B4 |  |  | binds | 
B5 | binds |  | binds | binding result (Prp4): binds
B6 |  | binds |  | 
